What was measured:
HeLa Kyoto [1] = experiment: solubility in G1/S (NP-40 vs SDS abundance) (log2 ratio); higher = more soluble; conditions: cell cycle stage: G1/S
HeLa Kyoto [2] = experiment: melting temperature (median over replicates), in situ; higher = more thermally stable
HeLa Kyoto [3] = experiment: solubility change mitosis vs G1/S (difference of NP-40 vs SDS log2 ratios) (log2 ratio difference); higher = more soluble in mitosis
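For melting temperature (median over replicates), in situ in this document: HeLa Kyoto cells synchronized by double thymidine or nocodazole block, proteins quantified by TMT10plex mass spectrometry, three independent biological replicates.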
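For solubility change mitosis vs G1/S (difference of NP-40 vs SDS log2 ratios) in this document: synchronized HeLa Kyoto cells (double thymidine block for G1/S, nocodazole release for mitosis), protein amounts in NP-40 versus SDS lysates quantified by mass spectrometry, three biological replicates.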
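For solubility in G1/S (NP-40 vs SDS abundance) in this document: HeLa Kyoto cells arrested at G1/S by double thymidine block, proteins quantified by TMT10plex mass spectrometry in mild NP-40 versus SDS extracts, three biological replicates.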

Sequence	solubility in G1/S (log2) (HeLa Kyoto [1])	melting temperature (HeLa Kyoto [2]; cell cycle stage: G1/S)	melting temperature (HeLa Kyoto [2]; cell cycle stage: mitosis)	solubility change mitosis (log2) (HeLa Kyoto [3])
MLRRVTVAAVCATRRKLCEAGRELAALWGIETRGRCEDSAAARPFPILAMPGRNKAKSTCSCPDLQPNGQDLGENSRVARLGADESEEEGRRGSLSNAGDPEIVKSPSDPKQYRYIKLQNGLQALLISDLSNMEGKTGNTTDDEEEEEVEEEEEDDDEDSGAEIEDDDEEGFDDEDEFDDEHDDDLDTEDNELEELEERAEARKKTTEKQSAAALCVGVGSFADPDDLPGLAHFLEHMVFMGSLKYPDENGFDAFLKKHGGSDNASTDCERTVFQFDVQRKYFKEALDRWAQFFIHPLMIRDAIDREVEAVDSEYQLARPSDANRKEMLFGSLARPGHPMGKFFWGNAETLKHEPRKNNIDTHARLREFWMRYYSSHYMTLVVQSKETLDTLEKWVTEIFSQIPNNGLPRPNFGHLTDPFDTPAFNKLYRVVPIRKIHALTITWALPPQQQHYRVKPLHYISWLVGHEGKGSILSFLRKKCWALALFGGNGETGFEQNSTYSVFSISITLTDEGYEHFYEVAYTVFQYLKMLQKLGPEKRIFEEIRKIEDNEFHYQEQTDPVEYVENMCENMQLYPLQDILTGDQLLFEYKPEVIGEALNQLVPQKANLVLLSGANEGKCDLKEKWFGTQYSIEDIENSWAELWNSNFELNPDLHLPAENKYIATDFTLKAFDCPETEYPVKIVNTPQGCLWYKKDNKFKIPKAYIRFHLISPLIQKSAANVVLFDIFVNILTHNLAEPAYEADVAQLEYKLVAGEHGLIIRVKGFNHKLPLLFQLIIDYLAEFNSTPAVFTMITEQLKKTYFNILIKPETLAKDVRLLILEYARWSMIDKYQALMDGLSLESLLSFVKEFKSQLFVEGLVQGNVTSTESMDFLKYVVDKLNFKPLEQEMPVQFQVVELPSGHHLCKVKALNKGDANSEVTVYYQSGTRSLREYTLMELLVMHMEEPCFDFLRTKQTLGYHVYPTCRNTSGILGFSVTVGTQATKYNSEVVDKKIEEFLSSFEEKIENLTEEAFNTQVTALIKLKECEDTHLGEEVDRNWNEVVTQQYLFDRLAHEIEALKSFSKSDLVNWFKAHRGPGSKMLSVHVVGYGKYELEEDGTPSSEDSNSSCEVMQLTYLPTSPLLADCIIPITDIRAFTTTLNLLPYHKIVK [NRD1]	0.116	50.5 °C	50.9 °C	-0.188
MMFRDQVGILAGWFKGWNECEQTVALLSLLKRVTRTQARFLQLCLEHSLADCNDIHLLESEANSAAIVSQWQQESKEKVVSLLLSHLPLLQPGNTEAKSEYMRLLQKVLAYSIESNAFIEESRQLLSYALIHPATTLEDRNALALWLSHLEERLASGFRSRPEPSYHSRQGSDEWGGPAELGPGEAGPGWQDKPPRENGHVPFHPSSSVPPAINSIGSNANTGLPCQIHPSPLKRSMSLIPTSPQVPGEWPSPEELGARAAFTTPDHAPLSPQSSVASSGSEQTEEQGSSRNTFQEDGSGMKDVPSWLKSLRLHKYAALFSQMSYEEMMTLTEQHLESQNVTKGARHKIALSIQKLRERQSVLKSLEKDVLEGGNLRNALQELQQIIITPIKAYSVLQATVAAATTTPTAKDGAPGEPPLPGAEPPLAHPGTDKGTEAKDPPAVENYPPPPAPAPTDGSEPAPAPVADGDIPSQFTRVMGKVCTQLLVSRPDEENITSYLQLIEKCLTHEAFTETQKKRLLSWKQQVLKLLRTFPRKAALEMQNYRQQKGWAFGSNSLPIAGSVGMGVARRTQRQFPMPPRALPPGRMGLLSPSGIGGVSPRHALTSPSLGGQGRQNLWFANPGGSNSMPSQSRSSVQRTHSLPVHSSPQAILMFPPDCPVPGPDLEINPTLESLCLSMTEHALGDGTDKTSTI [SAMD4B]	0.549	50.8 °C	51.4 °C	-0.0818
MMKFKPNQTRTYDREGFKKRAACLCFRSEQEDEVLLVSSSRYPDQWIVPGGGMEPEEEPGGAAVREVYEEAGVKGKLGRLLGIFENQDRKHRTYVYVLTVTEILEDWEDSVNIGRKREWFKVEDAIKVLQCHKPVHAEYLEKLKLGCSPANGNSTVPSLPDNNALFVTAAQTSGLPSSVR [NUDT4]	0.505		49.3 °C	-0.0227
MMSIKAFTLVSAVERELLMGDKERVNIECVECCGRDLYVGTNDCFVYHFLLEERPVPAGPATFTATKQLQRHLGFKKPVNELRAASALNRLLVLCDNSISLVNMLNLEPVPSGARIKGAATFALNENPVSGDPFCVEVCIISVKRRTIQMFLVYEDRVQIVKEVSTAEQPLAVAVDGHFLCLALTTQYIIHNYSTGVSQDLFPYCSEERPPIVKRIGRQEFLLAGPGGLGMFATVAGISQRAPVHWSENVIGAAVSFPYVIALDDEFITVHSMLDQQQKQTLPFKEGHILQDFEGRVIVATSKGVYILVPLPLEKQIQDLLASRRVEEALVLAKGARRNIPKEKFQVMYRRILQQAGFIQFAQLQFLEAKELFRSGQLDVRELISLYPFLLPTSSSFTRSHPPLHEYADLNQLTQGDQEKMAKCKRFLMSYLNEVRSTEVANGYKEDIDTALLKLYAEADHDSLLDLLVTENFCLLTDSAAWLEKHKKYFALGLLYHYNNQDAAAVQLWVNIVNGDVQDSTRSDLYEYIVDFLTYCLDEELVWAYADWVLQKSEEVGVQVFTKRPLDEQQKNSFNPDDIINCLKKYPKALVKYLEHLVIDKRLQKEEYHTHLAVLYLEEVLLQRASASGKGAEATETQAKLRRLLQKSDLYRVHFLLERLQGAGLPMESAILHGKLGEHEKALHILVHELQDFAAAEDYCLWCSEGRDPPHRQQLFHTLLAIYLHAGPTAHELAVAAVDLLNRHATEFDAAQVLQMLPDTWSVQLLCPFLMGAMRDSIHARRTMQVALGLARSENLIYTYDKMKLKGSSIQLSDKKLCQICQNPFCEPVFVRYPNGGLVHTHCAASRHTNPSSSSPGTRT [TGFBRAP1]	-0.0452		51.1 °C	-0.0966
MNNLNDPPNWNIRPNSRADGGDGSRWNYALLVPMLGLAAFRWIWSRESQKEVEKEREAYRRRTAAFQQDLEAKYHAMISENRRAVAQLSLELEKEQNRTASYREALISQGRKLVEEKKLLEQERAQVMQEKRQVQPLRSAYLSCLQREENWQRRARLLLKEFEAVLTERQNIYCSLFLPRSKRLEIEKSLLVRASVDPVAADLEMAAGLTDIFQHDTYCGDVWNTNKRQNGRLMWLYLKYWELVVELKKFKRVEEAILEK [CCDC127]	0.0789	54 °C	52.5 °C	0.115
MNRVNDPLIFIRDIKPGLKNLNVVFIVLEIGRVTKTKDGHEVRSCKVADKTGSITISVWDEIGGLIQPGDIIRLTRGYASMWKGCLTLYTGRGGELQKIGEFCMVYSEVPNFSEPNPDYRGQQNKGAQSEQKNNSMNSNMGTGTFGPVGNGVHTGPESREHQFSHAGRSNGRGLINPQLQGTASNQTVMTTISNGRDPRRAFKR [NABP1]	0.0163		50.7 °C	-0.222
